Source: IntAct's records for PubMed 17237231

B1: Macrophage scavenger receptor types I and II (Homo sapiens), P21757 (parent)
chain: MEQWDHFHNQQEDTDSCSESVKFDARSMTALLPPNPKNSPSLQEKLKSFKAALIALYLLVFAVLIPLIGIVAAQLLKWETKNCSVSSTNANDITQSLTGKGNDSEEEMRFQEVFMEHMSNMEKRIQHILDMEANLMDTEHFQNFSMTTDQRFNDILLQLSTLFSSVQGHGNAIDEISKSLISLNTTLLDLQLNIENLNGKIQENTFKQQEEISKLEERVYNVSAEIMAMKEEQVHLEQEIKGEVKVLNNITNDLRLKDWEHSQTLRNITLIQGPPGPPGEKGDRGPTGESGPRGFPGPIGPPGLKGDRGAIGFPGSRGLPGYAGRPGNSGPKGQKGEKGSGNTLTPFTKVRLVGGSGPHEGRVEILHSGQWGTICDDRWEVRVGQVVCRSLGYPGVQAVHKAAHFGQGTGPIWLNEVFCFGRESSIEECKIRQWGTRACSHSEDAGVTCTL
partner: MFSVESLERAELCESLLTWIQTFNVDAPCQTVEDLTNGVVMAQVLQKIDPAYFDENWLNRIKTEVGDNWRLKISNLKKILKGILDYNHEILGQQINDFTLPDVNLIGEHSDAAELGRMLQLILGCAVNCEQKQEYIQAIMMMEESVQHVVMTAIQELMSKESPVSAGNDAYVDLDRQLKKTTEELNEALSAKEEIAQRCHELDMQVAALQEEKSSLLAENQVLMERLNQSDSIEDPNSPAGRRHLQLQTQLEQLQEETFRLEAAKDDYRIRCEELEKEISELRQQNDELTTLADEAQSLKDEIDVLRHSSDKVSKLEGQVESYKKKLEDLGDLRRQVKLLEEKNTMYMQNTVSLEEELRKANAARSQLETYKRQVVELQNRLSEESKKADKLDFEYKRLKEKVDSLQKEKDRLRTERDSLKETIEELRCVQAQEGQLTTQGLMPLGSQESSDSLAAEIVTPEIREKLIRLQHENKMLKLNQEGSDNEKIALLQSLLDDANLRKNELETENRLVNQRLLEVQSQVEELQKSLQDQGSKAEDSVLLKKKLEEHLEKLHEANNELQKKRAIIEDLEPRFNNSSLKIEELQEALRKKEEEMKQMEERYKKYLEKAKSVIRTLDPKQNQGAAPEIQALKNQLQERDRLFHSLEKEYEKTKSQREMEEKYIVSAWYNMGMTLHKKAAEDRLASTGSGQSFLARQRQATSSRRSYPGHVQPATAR

Variants of: B1
Details: with hook3_human HOOK3, Q86VS8

Question: MEQWDHFHNQQAATASCSESVKFDARSMTALLPPNPKNSPSLQEKLKSFKAALIALYLLVFAVLIPLIGIVAAQLLKWETKNCSVSSTNANDITQSLTGKGNDSEEEMRFQEVFMEHMSNMEKRIQHILDMEANLMDTEHFQNFSMTTDQRFNDILLQLSTLFSSVQGHGNAIDEISKSLISLNTTLLDLQLNIENLNGKIQENTFKQQEEISKLEERVYNVSAEIMAMKEEQVHLEQEIKGEVKVLNNITNDLRLKDWEHSQTLRNITLIQGPPGPPGEKGDRGPTGESGPRGFPGPIGPPGLKGDRGAIGFPGSRGLPGYAGRPGNSGPKGQKGEKGSGNTLTPFTKVRLVGGSGPHEGRVEILHSGQWGTICDDRWEVRVGQVVCRSLGYPGVQAVHKAAHFGQGTGPIWLNEVFCFGRESSIEECKIRQWGTRACSHSEDAGVTCTL [E12A;D13A;D15A] was tested. Which “effect of a mutation on the interaction” value did it give?
Answer: disrupting interaction
